US20150086558A1 (ACADEMIA SINICA, published 2015)

Columns and labels:
[1] = target: T1, P1 peptide, junction peptide of CH4-CεmX (SVNPGLAGGSAQSQRAPDRVL) (human); test: ELISA screen of hybridomas on coated P1 peptide
T1 construct: Synthetic peptide coated on ELISA plates at 10 ug/mL
T1 peptide: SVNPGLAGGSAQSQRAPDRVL
Protocol: Hybridoma cells secreting antibodies with the desired antigen-binding activities were screened as follows. Microtiter plates were coated by incubating with 10 μg/mL of P1 peptide and various other peptides or 1 μg/mL of various recombinant CεmX-fusion proteins in carbonate buffer, 0.1M, pH 9.6, overnight at 4° C. The wells were blocked with 1% BSA in PBS, pH=7.3 for 1 hour and incubated with the antisera or control antibodies at various dilutions for 1 hour at 37° C. After washing, the ligand-bound antibodies were detected by HRP-conjugated goat anti-mouse IgG, Fcγ fragment specific (Jackson ImmunoResearch) at 1:10,000 and incubated for 1 hour at 37° C., followed by incubation with TMB substrate (Clinical Scientific Products). The OD was determined at 450 nm. Positive clones were selected for further characterization.

[2] = target: T2, IgE.CH3-CH4 recombinant protein (UniProt P01854 211-426, limits assumed); test: ELISA on coated recombinant protein
T2 construct: domain: CH3-CH4; Recombinant protein coated at 1 ug/mL in ELISA
T2 sequence (P01854 211-426 limits assumed): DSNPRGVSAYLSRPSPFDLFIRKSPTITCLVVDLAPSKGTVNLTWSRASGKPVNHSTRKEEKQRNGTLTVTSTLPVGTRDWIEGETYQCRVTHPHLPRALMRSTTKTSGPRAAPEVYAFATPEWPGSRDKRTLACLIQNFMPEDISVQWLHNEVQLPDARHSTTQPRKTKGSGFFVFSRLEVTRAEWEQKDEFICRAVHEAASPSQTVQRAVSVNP

[3] = target: T3, P1.15 peptide SVNPGLAGGSAQS (human); test: ELISA on coated synthetic peptide
T3 peptide: SVNPGLAGGSAQS

B1: monoclonal anti-IgE antibody mAb 5A8 (antibody, V domains shown)
VH: QVQLKQSGPGLVAPSQSLSITCTVSGFSLTDYGVNWVRQPPGKGLEWLGMIWGDGSTDYNSTLKSRLSISKDNSKSQVFLKINSLQTDDTARYYCALNWFAYWGQGTLVTAAA
VL: NIVMTQSPAIMSASPGEKVTMTCSASSSVNYMHWYQQKSGTSPKRWIYDTSKLASGVPARFSGSGSGTSYSLTISSMEAEDAATYYCQQWSSNPWTFGGGTKLEIK
notes: Mouse hybridoma monoclonal antibody; It was detected with anti-mouse IgG reagents
**Q.** Does B1 bind [1]?
**A.** binds

B2: monoclonal anti-IgE antibody mAb 2H9 (antibody, V domains shown)
VH: QVQMQQPGAELVRPGASVKMSCRTSGYTFTNYNVHWLKQTPGQGLEWIGGMYPGNDDILYNQNFKDRATLTADRSSSTAYIQLRSLTSEDSAVYYCTRSGLQGPWFDYWGQGTLVTVSA
VL: DIQMTQSSSYLSVSLGGRVTISCRASDHINNWLAWYQQKPGNAPRLLISSATSLETGVPSRFSGSGSGKDYSLTIISVQTEDVATYYCQQCWITPFTFGSGTKLEIK
notes: Mouse hybridoma monoclonal antibody from BALB/c mice immunized with HBcAg-P1; It was detected with anti-mouse IgG reagents
**Q.** Which results are given for B2?
**A.** binding result [2]: no binding; binding result [3]: binds; binding result [1]: binds
